In patent publication US20190388508A1 one finds Kd and fold higher binding affinity than TNFα data, which are given here for one molecule.

The term Kd denotes a measure of binding affinity in units of concentration. A high value points to a looser complex.

For experiment [1], the target named is T1, TNFR2, P20333.
T1 chain: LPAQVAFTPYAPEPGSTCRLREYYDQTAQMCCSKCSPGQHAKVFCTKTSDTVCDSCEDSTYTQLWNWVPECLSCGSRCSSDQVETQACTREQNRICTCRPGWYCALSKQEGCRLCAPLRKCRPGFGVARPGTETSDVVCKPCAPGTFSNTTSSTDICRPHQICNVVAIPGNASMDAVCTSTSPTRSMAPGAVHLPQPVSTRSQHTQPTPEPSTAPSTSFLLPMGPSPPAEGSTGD
The experiment is described as follows: method not stated. Particulars: remark: other sources report otherwise.

The target in experiment [2] is T1, TNFR2, P20333. Kind of experiment: method not stated; reference TNFα. Particulars: remark: other sources report otherwise.

B1: Progranulin (PGRN), P28799 18-593 (ligand)
chain: TRCPDGQFCPVACCLDPGGASYSCCRPLLDKWPTTLSRHLGGPCQVDAHCSAGHSCIFTVSGTSSCCPFPEAVACGDGHHCCPRGFHCSADGRSCFQRSGNNSVGAIQCPDSQFECPDFSTCCVMVDGSWGCCPMPQASCCEDRVHCCPHGAFCDLVHTRCITPTGTHPLAKKLPAQRTNRAVALSSSVMCPDARSRCPDGSTCCELPSGKYGCCPMPNATCCSDHLHCCPQDTVCDLIQSKCLSKENATTDLLTKLPAHTVGDVKCDMEVSCPDGYTCCRLQSGAWGCCPFTQAVCCEDHIHCCPAGFTCDTQKGTCEQGPHQVPWMEKAPAHLSLPDPQALKRDVPCDNVSSCPSSDTCCQLTSGEWGCCPIPEAVCCSDHQHCCPQGYTCVAEGQCQRGSEIVAGLEKMPARRASLSHPRDIGCDQHTSCPVGQTCCPSLGGSWACCQLPHAVCCEDRQHCCPAGYTCNVKARSCEKEVVSAQPATFLARSPHVGVKDVECGEGHFCHDNQTCCRDNRQGWACCPYRQGVCCADRRHCCPAGFRCAARGTKCLRREAPRWDAPLRDPALRQLL
B1 displayed a Kd in experiment [1] of 1.52 nM. In experiment [2], this molecule showed a fold higher binding affinity than TNFα of 600 fold.
